US20190092850A1 (NUMAB INNOVATION, published 2019)
Where a chain is given by its changes, count along the chain named. One block for each binder: values may come before it.

How the values were obtained:
recombinant human TNFα [1] = molecular target: T1, recombinant human TNFα (human, UniProt P01375 77-233); assay: cell-based or functional assay
[2] = molecular target: recombinant Cynomolgus monkey TNFα (Cynomolgus monkey (Macaca fascicularis), UniProt P79337 77-233); assay: cell-based or functional assay
Rhesus monkey TNFα = Rhesus monkey TNFα (Rhesus monkey (Macaca mulatta), UniProt P48094 77-233); assay: cell-based or functional assay
recombinant human TNFα [3] = molecular target: T1, recombinant human TNFα; assay: SPR (MASS-1), human TNFα immobilised, scFv injected; screening with 90 nM of scFv
Description: (§1) In a second step, for the best performing scFvs, Single Injection Cycle Kinetics (SiCK) were measured from a single injection cycle by simultaneously injecting six analyte samples at different concentrations into each of the eight parallel channels in the MASS-1 system. […] The apparent dissociation (kd) and association (kₐ) rate constants and the apparent dissociation equilibrium constant (KD) were calculated with the MASS-1 analysis software (Analyzer, Sierra Sensors) using one-to-one Langmuir binding model and quality of the fits was monitored based on Chi², which is a measure for the quality of the curve fitting. The smaller the value for the Chi² the more accurate is the fitting to the one-to-one Langmuir binding model. For affinity screenings, results were deemed valid if the Chi² was below 10 for the concentration analyzed. In cases where several scFv concentrations were analyzed, results were deemed valid if the average Chi² over all the concentrations tested was below 10.

recombinant human TNFα [4] = molecular target: T1, recombinant human TNFα; assay: SPR (MASS-1), human TNFα immobilised, two-fold serial dilutions of scFv injected
Description: Affinity was determined using 2-fold serial dilutions of the respective scFvs.
as §1

T1 sequence (P01375 77-233 limits assumed): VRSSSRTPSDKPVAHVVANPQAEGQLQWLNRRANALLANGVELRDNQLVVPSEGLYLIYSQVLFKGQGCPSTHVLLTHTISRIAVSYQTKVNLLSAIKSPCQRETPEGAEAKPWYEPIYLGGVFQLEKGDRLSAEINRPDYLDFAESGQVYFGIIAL
recombinant Cynomolgus monkey TNFα, sequence (P79337 77-233 limits assumed): as the sequence (P01375 77-233 limits assumed) above, with L37V, R44T, T72N, R138L counted along it
Rhesus monkey TNFα, sequence (P48094 77-233 limits assumed): as the sequence (P01375 77-233 limits assumed) above, with R44T, T72N, R138L counted along it

Neutralization of TNF in L929 assay, rel. IC50 (IC50, Infliximab (ng/ml)/IC50, scFv (ng/ml)) (recombinant human TNFα [1]): 0.6 ratio
Neutralization of TNF in L929 assay, rel. IC90 (IC90, Infliximab (ng/ml)/IC90, scFv (ng/ml)) (recombinant human TNFα [1]): 0.2 ratio
Species specificity in L929 assay IC50 (ng/ml), human (recombinant human TNFα [1]): 12.1 ng/mL
Species specificity in L929 assay IC50 (ng/ml), cyno [2]: 92.1 ng/mL
Species specificity in L929 assay IC50 (ng/ml), rhesus (Rhesus monkey TNFα): 59.7 ng/mL
Kd (recombinant human TNFα [3]): 0.7 nM
koff (recombinant human TNFα [3]): 0.00048 s⁻¹
kon (recombinant human TNFα [3]): 680000 M⁻¹ s⁻¹
B1: humanized scFv 16-19-B11-sc01 (CDR graft) (scFv)
scFv: MDIQMTQSPSSLSASVGDRVTITCQASESISSWLAWYQQKPGKAPKLLIYKASTLASGVPSRFSGSGSGTDFTLTISSLQPEDFATYYCQGYYLDSSVDDNVFGGGTKLTVLGGGGGSGGGGSGGGGSGGGGSEVQLVESGGGLVQPGGSLRLSCAASGIDFSTYGISWVRQAPGKGLEWIGYIYPDYGITDYASWVNGRFTISRDNSKNTVYLQMNSLRAEDTAVYYCARSGSYYSRGWGAHYFNLWGQGTLVTVSS

Neutralization of TNF in L929 assay, rel. IC50 (IC50, Infliximab (ng/ml)/IC50, scFv (ng/ml)) (recombinant human TNFα [1]): 16.2 ratio
Neutralization of TNF in L929 assay, rel. IC90 (IC90, Infliximab (ng/ml)/IC90, scFv (ng/ml)) (recombinant human TNFα [1]): 15 ratio
Species specificity in L929 assay IC50 (ng/ml), human (recombinant human TNFα [1]): 0.4 ng/mL
Species specificity in L929 assay IC50 (ng/ml), cyno [2]: 1.8 ng/mL
Species specificity in L929 assay IC50 (ng/ml), rhesus (Rhesus monkey TNFα): 1 ng/mL
Kd (recombinant human TNFα [4]): 0.059 nM
koff (recombinant human TNFα [4]): 5.8e-05 s⁻¹
kon (recombinant human TNFα [4]): 970000 M⁻¹ s⁻¹
B2: humanized scFv 16-19-B11-sc06 (structural graft) (scFv)
scFv: B1 scFv with T23N, A44R, F72Y, G182A, R205L, S208A, K209Q

Neutralization of TNF in L929 assay, rel. IC50 (IC50, Infliximab (ng/ml)/IC50, scFv (ng/ml)) (recombinant human TNFα [1]): 94 ratio
Neutralization of TNF in L929 assay, rel. IC90 (IC90, Infliximab (ng/ml)/IC90, scFv (ng/ml)) (recombinant human TNFα [1]): 4.5 ratio
Species specificity in L929 assay IC50 (ng/ml), human (recombinant human TNFα [1]): 0.8 ng/mL
Kd (recombinant human TNFα [3]): 0.22 nM
koff (recombinant human TNFα [3]): 0.00016 s⁻¹
kon (recombinant human TNFα [3]): 730000 M⁻¹ s⁻¹
B3: humanized scFv 16-19-B11-sc02 (structural graft) (scFv)
scFv: B1 scFv with T23N, D71E, S78G, E82A, A156K, G182A, R205L
